The record followed here is US20100028342A1 (published 2010).

Test [1] addresses T1, native human IGF-IR on human tumor cells (human, UniProt P08069 31-1367).
T1 construct: whole, on cells; also called native IGF-IR; endogenous cellular IGF-IR
The test can be described thus: competition: blocking of IGF-I binding to T47D cells (breast).

The target in test [2] is T1, native human IGF-IR on human tumor cells. Put plainly: competition: blocking of IGF-I binding to MCF7 cells (breast). On the procedure: (§1) The anti-IGF-IR antibodies were tested for blocking of radiolabeled ligand binding to native IGF-IR on human tumor cells (FIG. 1C). Assay conditions were performed according to Arteaga and Osborne (Cancer Res. 49:6237-41 (1989)), with minor modifications. MCF7 human breast cancer cells were seeded into 24 well dishes, and cultured overnight. Sub-confluent monolayers were washed 2-3 times in binding buffer (Iscove's Medium/0.1% BSA) and antibody added in binding buffer. […] The wells were then washed three times with ice-cold PBS/0.1% BSA. Monolayers were then lysed with 200 μl 0.5N NaOH and counted in a gamma counter.

The target is the same in test [3]. Put plainly: competition: blocking of IGF-I binding to OV90 cells (ovarian).
Test [4] has the same target. The test can be described thus: competition: blocking of IGF-I binding to HT-29 cells (colorectal).
The target in test [5] is T2, recombinant mouse IGF-IR (mIGF-IR) (mouse, UniProt Q60751 31-933, limits assumed).
T2 construct: also called mIGF-ER
Put plainly: ELISA on immobilized recombinant mouse IGF-IR. A general note: In an ELISA, binding on a coated surface is turned into a signal by an enzyme label.

Test [6] deals with T1, native human IGF-IR on human tumor cells. The test can be described thus: competition: blocking of 125I-IGF-I binding to IGF-IR on MCF7 cells. As to the method: as §1
For test [7] the target is unchanged. Put plainly: competition: blocking of IGF-I binding to SK-ES1 cells (Ewing sarcoma).
Test [8] shares this target. Put plainly: competition: blocking of IGF-I binding to HPAC cells (pancreatic).
The target is the same in test [9]. The test can be described thus: competition: blocking of IGF-I binding to 8226 cells (myeloma).
For test [10] the target is unchanged. The test can be described thus: competition: blocking of IGF-I binding to BXPC3 cells (pancreatic).

Where “and” joins values, the source holds several entries; their conditions need not be identical. Equal entries are not always repeated.

T2 sequence (Q60751 31-933 limits assumed): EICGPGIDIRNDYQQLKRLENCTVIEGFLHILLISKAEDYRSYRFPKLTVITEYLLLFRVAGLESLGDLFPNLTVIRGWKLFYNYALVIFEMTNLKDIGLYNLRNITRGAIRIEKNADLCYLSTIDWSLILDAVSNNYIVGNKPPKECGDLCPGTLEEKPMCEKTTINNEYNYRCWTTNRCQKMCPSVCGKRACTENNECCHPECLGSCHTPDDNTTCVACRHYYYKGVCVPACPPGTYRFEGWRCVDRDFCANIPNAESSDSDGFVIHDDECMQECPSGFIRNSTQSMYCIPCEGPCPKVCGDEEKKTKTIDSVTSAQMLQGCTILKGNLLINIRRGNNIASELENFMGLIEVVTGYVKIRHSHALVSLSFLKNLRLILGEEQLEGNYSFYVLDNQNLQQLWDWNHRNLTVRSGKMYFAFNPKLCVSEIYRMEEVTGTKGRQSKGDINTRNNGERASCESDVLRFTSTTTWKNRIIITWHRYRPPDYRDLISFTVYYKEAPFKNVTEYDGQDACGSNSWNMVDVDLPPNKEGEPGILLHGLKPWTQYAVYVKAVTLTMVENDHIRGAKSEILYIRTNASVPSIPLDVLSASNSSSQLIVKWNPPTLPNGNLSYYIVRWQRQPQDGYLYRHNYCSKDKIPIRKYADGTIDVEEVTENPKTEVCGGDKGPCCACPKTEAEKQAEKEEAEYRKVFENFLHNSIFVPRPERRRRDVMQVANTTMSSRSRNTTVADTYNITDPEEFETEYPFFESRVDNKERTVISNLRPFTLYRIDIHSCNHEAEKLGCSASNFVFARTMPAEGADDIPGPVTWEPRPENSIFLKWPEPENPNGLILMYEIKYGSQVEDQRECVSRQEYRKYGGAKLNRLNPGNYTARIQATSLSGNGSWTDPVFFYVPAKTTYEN

B1: antibody A12 (fully human IgG1 anti-IGF-IR antibody) (antibody, V domains shown)
VH: EVQLVQSGAEVKKPGSSVKVSCKASGGTFSSYAISWVRQAPGQGLEWMGGIIPIFGTANYAQKFQGRVTITADKSTSTAYMELSSLRSEDTAVYYCARAPLRFLEWSTQDHYYYYYMDVWGKGTTVTVSS
VL: SSELTQDPAVSVALGQTVRITCQGDSLRSYYATWYQQKPGQAPILVIYGENKRPSGIPDRFSGSSSGNTASLTITGAQAEDEADYYCKSRDGSGQHLVFGGGTKLTVLG
notes: also called A12 IgG
For orientation: IC50 means the midpoint of a concentration-inhibition curve. Low readings indicate greater potency, high ones weaker potency. In general, EC50 refers to the concentration that produces a half-maximal response. As for B1, the IC50 in test [1] turned out to be 6 nM; in test [2] it was 3 nM; in test [3], 6 nM; in [4] it was 10 nM; in test [6], 0.45 µg/mL; in [7], 2 nM. For the same molecule, the figures for the IC50 in test [8], in test [9] and in [10] were 10 nM, 20 nM and 20 nM, respectively. Moreover, the concentration for a half-maximal effect (EC50) in test [5] lay in the range of 0.3 to 0.5 nM.

B2: antibody 2F8 (fully human IgG1 anti-IGF-IR antibody) (antibody, V domains shown)
VH: B1 VH
VL: SSELTQDPAVSVALGQTVRITCQGDSLRSYYASWYQQKPGQAPVLVIYGKNNRPSGIPDRFSGSSSGNTASLTITGAQAEDEADYYCNSRDNSDNRLIFGGGTKLTVLS
notes: also called 2F8 IgG
Turning to B2, the IC50 in test [6] was 30 nM and 4.5 µg/mL.
